The source of these data is PMC2064389 (The Journal of Cell Biology, 2006).

Changes are numbered by the printed parent chain. In names and notes the source's numbering stands. Read-outs that look alike come from different tables or passages of the source.

Holding throughout (test): liposome flotation
Assay [1] addresses mArf1p (wild type or Q71L not told) (yeast) (UniProt P11076).
The target of assay [2] is T1, Chs5–Chs6[all] complex (yeast, UniProt Q12114 1-671; P40955 1-746; Q05029 1-724; Q08754 1-746; P36122 1-765).
Assay [3] concerns the target Complex of Chs5p with two paralogues (Chs6p and Bch1p) (yeast, UniProt Q12114 1-671; P40955 1-746; Q05029 1-724).
For assay [4], the target named is T1, Chs5–Chs6[all] complex. This is another data set of the same source.

Sequence of Complex of Chs5p with two paralogues (Chs6p and Bch1p) (Q12114 whole entry, chain 1 of 3): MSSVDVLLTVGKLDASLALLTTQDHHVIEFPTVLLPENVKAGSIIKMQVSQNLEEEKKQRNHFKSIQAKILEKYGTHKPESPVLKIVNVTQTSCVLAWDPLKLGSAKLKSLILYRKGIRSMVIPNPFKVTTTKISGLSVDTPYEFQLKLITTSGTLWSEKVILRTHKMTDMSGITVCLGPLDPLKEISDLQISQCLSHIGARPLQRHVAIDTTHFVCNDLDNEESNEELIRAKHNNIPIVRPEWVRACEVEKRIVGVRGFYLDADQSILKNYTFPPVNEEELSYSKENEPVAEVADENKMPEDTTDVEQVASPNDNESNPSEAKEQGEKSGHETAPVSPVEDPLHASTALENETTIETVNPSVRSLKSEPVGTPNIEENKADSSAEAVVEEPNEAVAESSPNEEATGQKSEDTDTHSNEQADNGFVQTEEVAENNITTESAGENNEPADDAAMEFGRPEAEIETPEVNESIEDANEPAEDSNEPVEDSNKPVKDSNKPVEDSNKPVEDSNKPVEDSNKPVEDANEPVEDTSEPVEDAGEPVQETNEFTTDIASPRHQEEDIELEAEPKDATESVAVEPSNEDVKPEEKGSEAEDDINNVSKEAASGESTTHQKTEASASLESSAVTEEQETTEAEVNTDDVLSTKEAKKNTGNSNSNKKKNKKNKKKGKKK
Sequence of Complex of Chs5p with two paralogues (Chs6p and Bch1p) (P40955 whole entry, chain 2 of 3): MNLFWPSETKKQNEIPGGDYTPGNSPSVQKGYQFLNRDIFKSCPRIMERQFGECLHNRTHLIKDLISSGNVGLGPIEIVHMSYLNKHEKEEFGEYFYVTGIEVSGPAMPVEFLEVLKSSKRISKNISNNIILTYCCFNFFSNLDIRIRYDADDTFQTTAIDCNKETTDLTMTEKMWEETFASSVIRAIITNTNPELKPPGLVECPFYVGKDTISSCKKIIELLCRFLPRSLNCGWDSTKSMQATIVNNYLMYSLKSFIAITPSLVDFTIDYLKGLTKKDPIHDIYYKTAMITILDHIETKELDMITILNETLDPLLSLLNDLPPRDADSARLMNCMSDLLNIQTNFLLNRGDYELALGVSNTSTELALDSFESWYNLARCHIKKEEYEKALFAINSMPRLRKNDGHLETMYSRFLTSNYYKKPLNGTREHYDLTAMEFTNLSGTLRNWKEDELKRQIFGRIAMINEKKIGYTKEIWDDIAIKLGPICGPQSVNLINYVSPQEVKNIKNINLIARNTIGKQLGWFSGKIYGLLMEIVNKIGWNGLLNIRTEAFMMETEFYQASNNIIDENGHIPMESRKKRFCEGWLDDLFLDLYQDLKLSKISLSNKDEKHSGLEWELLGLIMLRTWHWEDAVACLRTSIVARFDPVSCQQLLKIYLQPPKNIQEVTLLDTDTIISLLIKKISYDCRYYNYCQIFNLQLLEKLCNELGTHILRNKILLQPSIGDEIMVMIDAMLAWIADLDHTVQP
Sequence of Complex of Chs5p with two paralogues (Chs6p and Bch1p) (Q05029 whole entry, chain 3 of 3): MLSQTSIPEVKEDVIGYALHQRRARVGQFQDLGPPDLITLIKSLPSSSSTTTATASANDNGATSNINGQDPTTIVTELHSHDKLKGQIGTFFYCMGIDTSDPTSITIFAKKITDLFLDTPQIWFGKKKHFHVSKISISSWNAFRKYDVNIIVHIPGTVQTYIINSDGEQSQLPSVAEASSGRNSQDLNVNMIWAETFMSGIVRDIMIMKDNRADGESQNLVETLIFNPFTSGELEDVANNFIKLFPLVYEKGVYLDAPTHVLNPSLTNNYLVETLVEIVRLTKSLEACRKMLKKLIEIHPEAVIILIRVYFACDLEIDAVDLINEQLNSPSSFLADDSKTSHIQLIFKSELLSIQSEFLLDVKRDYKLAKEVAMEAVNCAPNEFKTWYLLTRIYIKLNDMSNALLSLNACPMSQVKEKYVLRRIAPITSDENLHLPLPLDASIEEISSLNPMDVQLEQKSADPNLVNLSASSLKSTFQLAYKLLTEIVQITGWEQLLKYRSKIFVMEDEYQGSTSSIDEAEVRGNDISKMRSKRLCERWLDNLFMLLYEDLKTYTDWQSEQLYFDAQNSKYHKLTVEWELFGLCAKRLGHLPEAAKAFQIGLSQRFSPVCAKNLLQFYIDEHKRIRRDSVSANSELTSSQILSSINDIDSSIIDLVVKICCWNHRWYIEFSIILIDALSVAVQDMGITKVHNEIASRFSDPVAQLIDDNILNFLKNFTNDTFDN

With “Chs5–Chs6[all] complex (from UniProt Q12114 1-671; P40955 1-746; Q05029 1-724; Q08754 1-746; P36122 1-765)”, in assay [1], the concentration of Chs5–Chs6[all] at which binding was saturated (∼1 μM mArf1p) came to 0.5 µM and the stoichiometry N (Arf1 per Chs5–Chs6[all] complex (molar)) was 7.5.

B1: Recombinant myristoylated Arf1p (Q71L; GTPase deficient) (natural protein, yeast, UniProt P11076 1-181, looked up)
chain: MGLFASKLFSNLFGNKEMRILMVGLDGAGKTTVLYKLKLGEVITTIPTIGFNVETVQYKNISFTVWDVGGLDRIRSLWRHYYRNTEGVIFVVDSNDRSRIGEAREVMQRMLNEDELRNAAWLVFANKQDLPEAMSAAEITEKLGLHSIRNRPWFIQATCATSGEGLYEGLEWLSNSLKNST
modifications: N-myristoylated (>75% of the protein)
Consider B1, for which the binding result in assay [2] was “binds”.

B2: Myristoylated wild-type Arf1p (natural protein, yeast, UniProt P11076 1-181, looked up)
chain: B1 chain with L71Q
modifications: N-myristoylated (>75% of the protein)
For the molecule B2, the binding result in assay [3] and in assay [4] was “binds” throughout.
